B1: EDARADD (parent)
chain: VEKVLRRWVDEEWPKRERGDPSRH

Variants of: B1
Assay: protein stability index of a GFP-peptide fusion (GPS, HEK-293T) (PSI 1-6); higher = more stable
Settings: c terminus: a fixed tail appended
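Note: lentivirally expressed fusions sorted by FACS into six bins by GFP to DsRed ratio, PSI derived from sequencing read proportions per bin multiplied by bin number.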

Compared with AEKVLRRWVDEEWPKRERGDPSRH, CEKVLRRWVDEEWPKRERGDPSRH is lower in protein stability index: 4.29 for the first, 2.77 for the second.

Going from DEKVLRRWVDEEWPKRERGDPSRH to EEKVLRRWVDEEWPKRERGDPSRH, the protein stability index falls from 4.36 to 4.19.

Going from FEKVLRRWVDEEWPKRERGDPSRH to GEKVLRRWVDEEWPKRERGDPSRH, the protein stability index rises from 1.98 to 3.61.

Going from HEKVLRRWVDEEWPKRERGDPSRH to IEKVLRRWVDEEWPKRERGDPSRH, the protein stability index falls from 3.42 to 2.2.

First: KEKVLRRWVDEEWPKRERGDPSRH
Second: LEKVLRRWVDEEWPKRERGDPSRH
The protein stability index of the first is higher: 2.85 for the first, 2.19 for the second.

First: MEKVLRRWVDEEWPKRERGDPSRH
Second: NEKVLRRWVDEEWPKRERGDPSRH
The protein stability index of the first is lower: 2.95 for the first, 3.91 for the second.

First: PEKVLRRWVDEEWPKRERGDPSRH
Second: QEKVLRRWVDEEWPKRERGDPSRH
The protein stability index of the first is higher: 3.94 for the first, 2.65 for the second.

First: REKVLRRWVDEEWPKRERGDPSRH
Second: SEKVLRRWVDEEWPKRERGDPSRH
The protein stability index of the first is higher: 4.16 for the first, 2.39 for the second.

First: TEKVLRRWVDEEWPKRERGDPSRH
Second: WEKVLRRWVDEEWPKRERGDPSRH
The protein stability index of the first is higher: 2.91 for the first, 2.28 for the second.

Compared with YEKVLRRWVDEEWPKRERGDPSRH, VAKVLRRWVDEEWPKRERGDPSRH is higher in protein stability index: 2.56 for the first, 2.61 for the second.

First: VCKVLRRWVDEEWPKRERGDPSRH
Second: VDKVLRRWVDEEWPKRERGDPSRH
The protein stability index of the first is lower: 2.3 for the first, 2.9 for the second.

Compared with VFKVLRRWVDEEWPKRERGDPSRH, VHKVLRRWVDEEWPKRERGDPSRH is higher in protein stability index: 1.45 for the first, 2.37 for the second.

Going from VIKVLRRWVDEEWPKRERGDPSRH to VKKVLRRWVDEEWPKRERGDPSRH, the protein stability index falls from 1.72 to 1.24.

Compared with VLKVLRRWVDEEWPKRERGDPSRH, VMKVLRRWVDEEWPKRERGDPSRH is higher in protein stability index: 1.39 for the first, 1.96 for the second.

Compared with VNKVLRRWVDEEWPKRERGDPSRH, VPKVLRRWVDEEWPKRERGDPSRH is lower in protein stability index: 3.23 for the first, 2.94 for the second.

Compared with VQKVLRRWVDEEWPKRERGDPSRH, VRKVLRRWVDEEWPKRERGDPSRH is higher in protein stability index: 2.51 for the first, 2.53 for the second.

First: VSKVLRRWVDEEWPKRERGDPSRH
Second: VTKVLRRWVDEEWPKRERGDPSRH
The protein stability index of the first is higher: 2.46 for the first, 2.24 for the second.

Going from VVKVLRRWVDEEWPKRERGDPSRH to VWKVLRRWVDEEWPKRERGDPSRH, the protein stability index rises from 1.63 to 2.05.

Compared with VYKVLRRWVDEEWPKRERGDPSRH, VEAVLRRWVDEEWPKRERGDPSRH is higher in protein stability index: 1.89 for the first, 2.78 for the second.

Compared with VECVLRRWVDEEWPKRERGDPSRH, VEDVLRRWVDEEWPKRERGDPSRH is higher in protein stability index: 3.38 for the first, 4.38 for the second.

First: VEEVLRRWVDEEWPKRERGDPSRH
Second: VEFVLRRWVDEEWPKRERGDPSRH
The protein stability index of the first is higher: 3.55 for the first, 2.21 for the second.

First: VEGVLRRWVDEEWPKRERGDPSRH
Second: VEHVLRRWVDEEWPKRERGDPSRH
The protein stability index of the first is lower: 4.05 for the first, 5.03 for the second.

Going from VEIVLRRWVDEEWPKRERGDPSRH to VELVLRRWVDEEWPKRERGDPSRH, the protein stability index rises from 1.25 to 2.41.

Compared with VENVLRRWVDEEWPKRERGDPSRH, VEPVLRRWVDEEWPKRERGDPSRH is higher in protein stability index: 3.26 for the first, 3.8 for the second.

First: VEQVLRRWVDEEWPKRERGDPSRH
Second: VESVLRRWVDEEWPKRERGDPSRH
The protein stability index of the first is lower: 2.85 for the first, 3.01 for the second.

First: VETVLRRWVDEEWPKRERGDPSRH
Second: VEVVLRRWVDEEWPKRERGDPSRH
The protein stability index of the first is higher: 2.14 for the first, 2.09 for the second.

Compared with VEWVLRRWVDEEWPKRERGDPSRH, VEYVLRRWVDEEWPKRERGDPSRH is higher in protein stability index: 1.36 for the first, 2.77 for the second.

Compared with VEKALRRWVDEEWPKRERGDPSRH, VEKCLRRWVDEEWPKRERGDPSRH is lower in protein stability index: 2.89 for the first, 2.62 for the second.

Compared with VEKDLRRWVDEEWPKRERGDPSRH, VEKELRRWVDEEWPKRERGDPSRH is higher in protein stability index: 4.08 for the first, 4.41 for the second.

Compared with VEKFLRRWVDEEWPKRERGDPSRH, VEKHLRRWVDEEWPKRERGDPSRH is higher in protein stability index: 1.97 for the first, 3.6 for the second.

Going from VEKILRRWVDEEWPKRERGDPSRH to VEKKLRRWVDEEWPKRERGDPSRH, the protein stability index rises from 2.69 to 3.06.

First: VEKLLRRWVDEEWPKRERGDPSRH
Second: VEKMLRRWVDEEWPKRERGDPSRH
The protein stability index of the first is lower: 2.2 for the first, 2.67 for the second.

First: VEKNLRRWVDEEWPKRERGDPSRH
Second: VEKPLRRWVDEEWPKRERGDPSRH
The protein stability index of the first is higher: 4.2 for the first, 3.71 for the second.

Compared with VEKQLRRWVDEEWPKRERGDPSRH, VEKRLRRWVDEEWPKRERGDPSRH is higher in protein stability index: 2.76 for the first, 3.42 for the second.

Going from VEKSLRRWVDEEWPKRERGDPSRH to VEKTLRRWVDEEWPKRERGDPSRH, the protein stability index falls from 4.21 to 3.08.

Going from VEKWLRRWVDEEWPKRERGDPSRH to VEKYLRRWVDEEWPKRERGDPSRH, the protein stability index falls from 3.53 to 2.5.

First: VEKVARRWVDEEWPKRERGDPSRH
Second: VEKVCRRWVDEEWPKRERGDPSRH
The protein stability index of the first is higher: 4.3 for the first, 2.71 for the second.

Going from VEKVDRRWVDEEWPKRERGDPSRH to VEKVERRWVDEEWPKRERGDPSRH, the protein stability index falls from 4.57 to 4.5.

First: VEKVFRRWVDEEWPKRERGDPSRH
Second: VEKVGRRWVDEEWPKRERGDPSRH
The protein stability index of the first is lower: 3.25 for the first, 4.19 for the second.

Going from VEKVHRRWVDEEWPKRERGDPSRH to VEKVIRRWVDEEWPKRERGDPSRH, the protein stability index falls from 4.26 to 2.96.

Compared with VEKVKRRWVDEEWPKRERGDPSRH, VEKVMRRWVDEEWPKRERGDPSRH is higher in protein stability index: 2.96 for the first, 3.3 for the second.

Going from VEKVNRRWVDEEWPKRERGDPSRH to VEKVPRRWVDEEWPKRERGDPSRH, the protein stability index rises from 3.94 to 4.07.

First: VEKVQRRWVDEEWPKRERGDPSRH
Second: VEKVRRRWVDEEWPKRERGDPSRH
The protein stability index of the first is higher: 2.78 for the first, 1.99 for the second.

Going from VEKVSRRWVDEEWPKRERGDPSRH to VEKVTRRWVDEEWPKRERGDPSRH, the protein stability index rises from 2.8 to 3.98.

Going from VEKVVRRWVDEEWPKRERGDPSRH to VEKVWRRWVDEEWPKRERGDPSRH, the protein stability index falls from 3.23 to 2.98.

Compared with VEKVYRRWVDEEWPKRERGDPSRH, VEKVLARWVDEEWPKRERGDPSRH is higher in protein stability index: 2.34 for the first, 3.88 for the second.

Compared with VEKVLCRWVDEEWPKRERGDPSRH, VEKVLDRWVDEEWPKRERGDPSRH is higher in protein stability index: 3.06 for the first, 4.34 for the second.
